# B1: HA-Gid11 (Ylr149c/Gid11) (natural protein, S. cerevisiae, UniProt Q99296 1-730, looked up)
# chain: MTIDGTGQSKEALQDERLNTGSDKVYQNYMMPALELYDAKVSINHWQLRDCIKPGSMNQSKLYYIYDHSIRVLDTDSSVLRSPVRRHNSIQPSNSGKNSTEKTSTKGSRTTGSYISKNLHVPSEKLVEFNFKPRCFTELNGLTVCGGLIGSDDKGFPSNWNRLAQDANISLPPPSQPINISKNISFPINSHYSNPNIWKGIVEFYNQETDTMMTFTLGQFINNCVTLYDRASMQFDLFACNNDGHLYQCDVSNRDVTLVKRYADLKFPLNNASLSHDGQTMVVSGDSNKFAVYNQNELTNQFSLHYDNHPSWGSSVNRVRRIPRFALPDESEYIENIYEAPNSDHGFYNSFSENDLQFATVFQNGTCAIYDIRNMATPMAEISSTRPHSHNGAFRVCRFSYGLDDLLFISEHQGRVHVVDTRNYVNHQVIVIPDKVNMEYINERKHNTNHNFTTNNNNENESNDSKNELQGADYRSLSRRRFSLPSMPNVTTEPWITMAQRIPKKYLEPQILPFPKVMDKISNESVLFSTKGSSSSDVAHPYKRRCSFRVRRVSTSAPTADYSNNNVNASLGTPAADSIATSSSNSAPQNLIDPLILSHQQASNDVFEDDEYYEAYNDVHSTYRVSSDYHGVSARAFESFLRPPSTPDLPSDDDNFAANSRNNRGTSNFLRRPVITTQESNEFSEENNISGIDWVEDRNGSSLIIGTDYGIMRWNINSWARRSFSSYDLC
# notes: Gid11 (Ylr149c), S. cerevisiae, WD40/YVTN repeat-like domain protein; the last 4 residues are printed as 727-730, so the protein ends at residue 730; also called HA-YLR149C; source: S. cerevisiae, overexpressed from plasmid pRS413-GPDpr-HA-YLR149C, in lysate; not shown: HA, N-terminal, kept
# Target: T1, Gid1-tFT (chromosomally tagged Gid1-mCherry-sfGFP) (S. cerevisiae, UniProt P53076 1-958)
# T1 construct: Gid1, subunit of the GID ubiquitin ligase complex, S. cerevisiae; endogenous locus tagged with mCherry-sfGFP; It was precipitated with anti-GFP antibodies from lysate, so other GID subunits are likely present with it; source: S. cerevisiae, chromosomally tagged (strain YMaM1083; YLZY0091 for gid5Δ), in lysate; not shown: mCherry-sfGFP timer (tFT), C-terminal, kept
# T1 sequence (looked up): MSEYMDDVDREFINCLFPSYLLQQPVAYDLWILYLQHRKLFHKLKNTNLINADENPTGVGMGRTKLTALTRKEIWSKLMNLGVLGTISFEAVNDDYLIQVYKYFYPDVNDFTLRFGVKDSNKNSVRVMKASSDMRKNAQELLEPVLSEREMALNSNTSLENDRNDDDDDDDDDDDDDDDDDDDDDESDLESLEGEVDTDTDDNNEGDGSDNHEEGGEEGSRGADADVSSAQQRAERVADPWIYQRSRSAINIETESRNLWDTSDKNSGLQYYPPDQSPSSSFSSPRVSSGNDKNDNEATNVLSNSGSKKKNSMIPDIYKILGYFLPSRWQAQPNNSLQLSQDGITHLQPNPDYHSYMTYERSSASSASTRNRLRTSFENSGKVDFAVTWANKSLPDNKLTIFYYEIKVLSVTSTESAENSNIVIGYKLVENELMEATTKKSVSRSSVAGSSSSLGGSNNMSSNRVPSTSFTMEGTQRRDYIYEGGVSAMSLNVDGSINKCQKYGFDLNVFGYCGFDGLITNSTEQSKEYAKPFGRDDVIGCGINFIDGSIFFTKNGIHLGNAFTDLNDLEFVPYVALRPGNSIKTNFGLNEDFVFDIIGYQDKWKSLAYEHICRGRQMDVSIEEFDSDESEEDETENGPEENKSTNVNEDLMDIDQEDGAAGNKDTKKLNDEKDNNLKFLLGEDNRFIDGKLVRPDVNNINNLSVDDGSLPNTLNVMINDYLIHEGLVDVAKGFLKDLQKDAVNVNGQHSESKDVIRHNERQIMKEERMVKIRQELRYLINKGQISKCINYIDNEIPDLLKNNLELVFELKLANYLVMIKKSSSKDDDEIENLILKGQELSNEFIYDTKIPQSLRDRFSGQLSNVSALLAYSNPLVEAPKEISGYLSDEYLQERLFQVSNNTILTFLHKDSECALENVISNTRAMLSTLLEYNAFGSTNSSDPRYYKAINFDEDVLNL
# Experiment: co-IP; tFT-tagged bait precipitated with rabbit anti-GFP on Dynabeads from yeast lysates (log phase, SC medium lacking histidine, 2% glucose); IP buffer 50 mM Tris-HCl pH 7.5, 100 mM NaCl, 1% Triton X-100, 2 mM EDTA; 2 h at 4°C; HA-tagged prey detected by anti-HA blot; WT or gid5Δ cells
# Conditions: partners not purified
binder,measurement,value
B1,"relative amount of co-immunoprecipitated HA-Gid11, normalized to precipitated Gid1-tFT, in gid5Δ cells compared with the WT",0.43 relative to WT

# Source: publication PMC8189435, “Timer-based proteomic profiling of the ubiquitin-proteasome system reveals a substrate receptor of the GID ubiquitin ligase” (Molecular Cell, 2021)
